Assay results reported in US20210130436A1 (published 2021).

Experiments:
[1] = biological target: T1, human PD-L1 expressed on CHO cells (human, UniProt Q9NZQ7 19-290); assay: flow cytometry, CHO cells stably expressing PD-L1, Fc fusion at 33.3 nM
T1 construct: whole, on cells; Target on CHO cells stably expressing PD-L1; also called huPD-L1

[2] = biological target: T2, human CTLA4 expressed on CHO cells (human, UniProt P16410 36-223); assay: flow cytometry, CHO cells stably expressing CTLA4, Fc fusion at 33.3 nM
T2 construct: whole, on cells; Target on CHO cells stably expressing CTLA4; also called huCTLA4

[3] = biological target: T3, human CTLA4 (full-length, expressed on CHO cells) (human, UniProt P16410 36-223); assay: flow cytometry MFI at 33.3 nM relative to WT CD80 ECD-Fc (R&D), CHO/huCTLA4 cells
T3 construct: also called huCTLA4

[4] = biological target: T3, human CTLA4 (full-length, expressed on …); assay: flow cytometry, CHO cells expressing huCTLA4, PE anti-human Fc
[5] = biological target: T4, human PD-L1 (full-length, expressed on CHO cells) (human, UniProt Q9NZQ7 19-290); assay: flow cytometry, MFI on CHO/huPD-L1 cells over MFI on Jurkat (CD28) cells, 33.3 nM
T4 construct: also called huPD-L1; CD274

[6] = biological target: T5, CD28 (endogenously expressed on Jurkat/IL2 reporter cells) (human, UniProt P10747 19-220); assay: flow cytometry MFI at 33.3 nM relative to WT CD80 ECD-Fc (R&D), Jurkat cells
T5 construct: Endogenous CD28 of Jurkat cells; also called human CD28

[7] = biological target: T4, human PD-L1 (full-length, expressed on …); assay: flow cytometry MFI at 33.3 nM relative to WT CD80 ECD-Fc (R&D), CHO/huPD-L1 cells
[8] = biological target: T5, CD28 (endogenously expressed on …); assay: flow cytometry, Jurkat/IL2 reporter cells (endogenous CD28), PE anti-human Fc
[9] = biological target: T4, human PD-L1 (full-length, expressed on …); assay: flow cytometry, CHO cells expressing huPD-L1, PE anti-human Fc
human PD-L1 = biological target: T6, human PD-L1 (human, UniProt Q9NZQ7 19-290); assay: flow cytometry, CHO cells stably expressing huPD-L1, 33.3 nM Fc fusion, PE anti-human Fc
T6 construct: whole, on cells; CHO cells stably expressing huPD-L1; also called huPD-L1

human CD28 = biological target: T7, human CD28 (human, UniProt P10747 19-220); assay: flow cytometry, Jurkat/IL2 reporter cells (endogenous CD28), 33.3 nM Fc fusion, PE anti-human Fc
T7 construct: whole, on cells; Jurkat/IL2 reporter cells, which endogenously express CD28

human CTLA-4 = biological target: T8, human CTLA-4 (human, UniProt P16410 36-223); assay: flow cytometry, CHO cells stably expressing huCTLA-4, 33.3 nM Fc fusion, PE anti-human Fc
T8 construct: whole, on cells; CHO cells stably expressing huCTLA4; also called huCTLA4
T8 sequence (P16410 36-223): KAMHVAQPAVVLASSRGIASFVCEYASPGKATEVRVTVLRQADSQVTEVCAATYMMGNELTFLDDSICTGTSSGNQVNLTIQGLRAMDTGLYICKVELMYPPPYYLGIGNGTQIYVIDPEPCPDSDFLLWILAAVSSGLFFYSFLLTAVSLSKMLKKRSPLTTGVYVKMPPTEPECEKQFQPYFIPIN

T1 sequence (Q9NZQ7 19-290): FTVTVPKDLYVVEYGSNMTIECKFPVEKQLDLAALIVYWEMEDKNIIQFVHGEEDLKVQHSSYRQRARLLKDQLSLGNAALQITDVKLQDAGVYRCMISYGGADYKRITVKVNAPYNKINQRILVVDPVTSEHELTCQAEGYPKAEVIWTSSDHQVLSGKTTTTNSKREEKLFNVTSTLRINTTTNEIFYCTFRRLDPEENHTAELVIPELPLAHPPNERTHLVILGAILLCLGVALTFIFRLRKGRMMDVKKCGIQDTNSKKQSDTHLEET
T4 sequence (Q9NZQ7 19-290): as above
T3 sequence (P16410 36-223): as the sequence (P16410 36-223) above
T2 sequence (P16410 36-223): as above
T6 sequence (Q9NZQ7 19-290): as the sequence (Q9NZQ7 19-290) above

Row | MFI at 33.3 nM [1] | MFI at 33.3 nM [2] | Fold change to WT CD80 [3] | MFI at 33.3 nM [4] | Ratio of PDL1:CD28 [5] | Fold change to WT [6] | Fold change to WT [7] | MFI at 33.3 nM [8] | MFI at 33.3 nM [9] | MFI at 33.3 nM (human PD-L1) | MFI at 33.3 nM (human CD28) | MFI at 33.3 nM (human CTLA-4) | Binder
1 | 21800 MFI | 29500 MFI |  |  |  |  |  |  |  |  |  |  | CD80 E35D/M47V/V68M/K89N IgV-Fc (Fc fusion, not shown: small tags and cut ends; a dimerising Fc or GST) VIHVTKEVKEVATLSCGHNVSVEELAQTRIYWQKDKKMVLTMMSGDVNIWPEYKNRTIFDITNNLSIMILALRPSDEGTYECVVLKYENDAFKREHLAEVTLSVKAD
2 |  |  | 0.42 fold | 75400 MFI | 177 ratio | 0.04 fold | 5.97 fold | 268 MFI | 47400 MFI |  |  |  | variant CD80 IgV-Fc Q33L/E35D/M47V/L85Q (Fc fusion, not shown: a dimerising Fc or GST) VIHVTKEVKEVATLSCGHNVSVEELAQTRIYWLKDKKMVLTMMSGDVNIWPEYKNRTIFDITNNLSIVILALRPSDEGTYECVVQKYEKDAFKREHLAEVTLSVKAD
3 | 538 MFI | 2330 MFI |  |  |  |  |  |  |  |  |  |  | CD80 V68M/K89N IgV-Fc (Fc fusion, not shown: small tags and cut ends; a dimerising Fc or GST) VIHVTKEVKEVATLSCGHNVSVEELAQTRIYWQKEKKMVLTMMSGDMNIWPEYKNRTIFDITNNLSIMILALRPSDEGTYECVVLKYENDAFKREHLAEVTLSVKAD
4 |  |  |  |  |  |  |  |  |  | 51500 MFI | 6910 MFI |  | variant CD80 IgV-Fc (inert) H18Y/A26P/E35D/M47V/V68M/A71G (Fc fusion, not shown: inert human IgG1 Fc) VIHVTKEVKEVATLSCGYNVSVEELPQTRIYWQKDKKMVLTMMSGDVNIWPEYKNRTIFDITNNLSIMILGLRPSDEGTYECVVLKYEKDAFKREHLAEVTLSVKAD
5 |  |  | 1.52 fold | 271000 MFI | 54 ratio | 0.04 fold | 1.84 fold | 273 MFI | 14600 MFI |  |  |  | variant CD80 IgV-Fc E7D/E35D/M47I/L97Q (Fc fusion, not shown: a dimerising Fc or GST) VIHVTKDVKEVATLSCGHNVSVEELAQTRIYWQKDKKMVLTMMSGDINIWPEYKNRTIFDITNNLSIVILALRPSDEGTYECVVLKYEKDAFKREHQAEVTLSVKAD
6 |  |  | 1.88 fold | 336000 MFI | 51 ratio | 0.08 fold | 4.18 fold | 646 MFI | 33200 MFI |  |  |  | variant CD80 IgV-Fc E35D/M47L/L85Q (Fc fusion, not shown: a dimerising Fc or GST) VIHVTKEVKEVATLSCGHNVSVEELAQTRIYWQKDKKMVLTMMSGDLNIWPEYKNRTIFDITNNLSIVILALRPSDEGTYECVVQKYEKDAFKREHLAEVTLSVKAD
7 |  |  | 0.01 fold | 2090 MFI | 282 ratio | 0.04 fold | 9.64 fold | 272 MFI | 76600 MFI |  |  |  | variant CD80 IgV-Fc H18Y/A26E/Q33L/E35D/M47L/L85Q (Fc fusion, not shown: a dimerising Fc or GST) VIHVTKEVKEVATLSCGYNVSVEELEQTRIYWLKDKKMVLTMMSGDLNIWPEYKNRTIFDITNNLSIVILALRPSDEGTYECVVQKYEKDAFKREHLAEVTLSVKAD
8 |  |  | 0.01 fold | 1170 MFI | 229 ratio | 0.04 fold | 7.89 fold | 274 MFI | 62700 MFI |  |  |  | variant CD80 IgV-Fc A26E/Q33L/E35D/M47L/L85Q (Fc fusion, not shown: a dimerising Fc or GST) VIHVTKEVKEVATLSCGHNVSVEELEQTRIYWLKDKKMVLTMMSGDLNIWPEYKNRTIFDITNNLSIVILALRPSDEGTYECVVQKYEKDAFKREHLAEVTLSVKAD
9 |  |  | 1.56 fold | 278000 MFI | 262 ratio | 0.03 fold | 8.57 fold | 260 MFI | 68100 MFI |  |  |  | variant CD80 IgV-Fc A26E/E35D/M43T/M47L/L85Q/R94Q (Fc fusion, not shown: a dimerising Fc or GST) VIHVTKEVKEVATLSCGHNVSVEELEQTRIYWQKDKKMVLTMTSGDLNIWPEYKNRTIFDITNNLSIVILALRPSDEGTYECVVQKYEKDAFKQEHLAEVTLSVKAD
10 |  |  | 2.09 fold | 374000 MFI | 226 ratio |  | 12.3 fold |  | 98100 MFI |  |  |  | variant CD80 IgV-Fc H18L/V22A/E35D/M47L/N48T/L85Q (Fc fusion, not shown: a dimerising Fc or GST) VIHVTKEVKEVATLSCGLNVSAEELAQTRIYWQKDKKMVLTMMSGDLTIWPEYKNRTIFDITNNLSIVILALRPSDEGTYECVVQKYEKDAFKREHLAEVTLSVKAD
11 |  |  | 0.01 fold | 1320 MFI | 225 ratio | 0.04 fold | 7.67 fold | 271 MFI | 60900 MFI |  |  |  | variant CD80 IgV-Fc A26E/Q33L/E35D/M47L (Fc fusion, not shown: a dimerising Fc or GST) VIHVTKEVKEVATLSCGHNVSVEELEQTRIYWLKDKKMVLTMMSGDLNIWPEYKNRTIFDITNNLSIVILALRPSDEGTYECVVLKYEKDAFKREHLAEVTLSVKAD
12 |  |  | 1.59 fold | 284000 MFI | 9 ratio | 0.66 fold | 5.56 fold | 5070 MFI | 44200 MFI |  |  |  | variant CD80 IgV-Fc H18Y/E35D/M47L (Fc fusion, not shown: a dimerising Fc or GST) VIHVTKEVKEVATLSCGYNVSVEELAQTRIYWQKDKKMVLTMMSGDLNIWPEYKNRTIFDITNNLSIVILALRPSDEGTYECVVLKYEKDAFKREHLAEVTLSVKAD
13 |  |  | 1.38 fold | 247000 MFI | 238 ratio | 0.04 fold | 8.12 fold | 272 MFI | 64500 MFI |  |  |  | variant CD80 IgV-Fc E35D/M47I/E77A/L85Q/R94W (Fc fusion, not shown: a dimerising Fc or GST) VIHVTKEVKEVATLSCGHNVSVEELAQTRIYWQKDKKMVLTMMSGDINIWPEYKNRTIFDITNNLSIVILALRPSDAGTYECVVQKYEKDAFKWEHLAEVTLSVKAD
14 |  |  | 0.01 fold | 1280 MFI | 276 ratio | 0.04 fold | 9.56 fold | 275 MFI | 76000 MFI |  |  |  | variant CD80 IgV-Fc A26E/Q33R/E35D/M47L/L85Q/K86E (Fc fusion, not shown: a dimerising Fc or GST, Fc fusions are described in general as dimers) VIHVTKEVKEVATLSCGHNVSVEELEQTRIYWRKDKKMVLTMMSGDLNIWPEYKNRTIFDITNNLSIVILALRPSDEGTYECVVQEYEKDAFKREHLAEVTLSVKAD
15 |  |  |  |  |  |  |  |  |  | 32300 MFI | 4800 MFI | 23900 MFI | variant CD80 IgV-Fc (inert) H18F/A26P/E35D/M47I/V68M/A71G/D90G (Fc fusion, not shown: inert human IgG1 Fc) VIHVTKEVKEVATLSCGFNVSVEELPQTRIYWQKDKKMVLTMMSGDINIWPEYKNRTIFDITNNLSIMILGLRPSDEGTYECVVLKYEKGAFKREHLAEVTLSVKAD
16 |  |  | 0.04 fold | 6390 MFI | 104 ratio |  | 5.66 fold |  | 44900 MFI |  |  |  | variant CD80 IgV-Fc Q33L/E35D/T41S/M43I (Fc fusion, not shown: a dimerising Fc or GST) VIHVTKEVKEVATLSCGHNVSVEELAQTRIYWLKDKKMVLSMISGDMNIWPEYKNRTIFDITNNLSIVILALRPSDEGTYECVVLKYEKDAFKREHLAEVTLSVKAD
17 |  |  |  |  |  |  |  |  |  |  | 8190 MFI | 19800 MFI | variant CD80 IgV-Fc (inert) A26P/E35D/M47I/V68M/A71G/D90G (Fc fusion, not shown: inert human IgG1 Fc) VIHVTKEVKEVATLSCGHNVSVEELPQTRIYWQKDKKMVLTMMSGDINIWPEYKNRTIFDITNNLSIMILGLRPSDEGTYECVVLKYEKGAFKREHLAEVTLSVKAD
18 | 11500 MFI | 19100 MFI |  |  |  |  |  |  |  |  |  |  | CD80 N48K/V68M/K89N IgV-Fc (Fc fusion, not shown: small tags and cut ends; a dimerising Fc or GST) VIHVTKEVKEVATLSCGHNVSVEELAQTRIYWQKEKKMVLTMMSGDMKIWPEYKNRTIFDITNNLSIMILALRPSDEGTYECVVLKYENDAFKREHLAEVTLSVKAD
19 |  |  | 0.01 fold | 1280 MFI | 309 ratio | 0.03 fold | 10.3 fold | 264 MFI | 81500 MFI |  |  |  | variant CD80 IgV-Fc A26E/Q33R/E35D/M47L/L85Q (Fc fusion, not shown: a dimerising Fc or GST) VIHVTKEVKEVATLSCGHNVSVEELEQTRIYWRKDKKMVLTMMSGDLNIWPEYKNRTIFDITNNLSIVILALRPSDEGTYECVVQKYEKDAFKREHLAEVTLSVKAD
